These results are taken from patent publication US12104181B2, “Compositions and methods for treating viral infections targeting TRIM7” (THE BOARD OF REGENTS OF THE UNIVERSITY OF TEXAS SYSTEM, priority 2021, dated 2024).

The experiment has as its system coxsackievirus B3 (CVB3-GFP). The format is cell-based. As to conditions: HeLa cells, replicate R1; for Percent Infected R1: GFP-positive cells within RFP-positive gate.

B1: TRIM22: human RING type E3 ligase expressed from lentiviral vector (protein, UniProt Q8IYM9 1-498, looked up)
E3 ubiquitin-protein ligase …: MDFSVKVDIEKEVTCPICLELLTEPLSLDCGHSFCQACITAKIKESVIISRGESSCPVCQTRFQPGNLRPNRHLANIVERVKEVKMSPQEGQKRDVCEHHGKKLQIFCKEDGKVICWVCELSQEHQGHQTFRINEVVKECQEKLQVALQRLIKEDQEAEKLEDDIRQERTAWKNYIQIERQKILKGFNEMRVILDNEEQRELQKLEEGEVNVLDNLAAATDQLVQQRQDASTLISDLQRRLRGSSVEMLQDVIDVMKRSESWTLKKPKSVSKKLKSVFRVPDLSGMLQVLKELTDVQYYWVDVMLNPGSATSNVAISVDQRQVKTVRTCTFKNSNPCDFSAFGVFGCQYFSSGKYYWEVDVSGKIAWILGVHSKISSLNKRKSSGFAFDPSVNYSKVYSRYRPQYGYWVIGLQNTCEYNAFEDSSSSDPKVLTLFMAVPPCRIGVFLDYEAGIVSFFNVTNHGALIYKFSGCRFSRPAYPYFNPWNCLVPMTVCPPSS
Take B1: the “Percent Infected R1” value is on record as 49.4% and the “Z score R1” value is listed as −0.499.

B2: TRIM18: human RING type E3 ligase expressed from lentiviral vector (protein, UniProt O15344 1-667, looked up)
E3 ubiquitin-protein ligase …: METLESELTCPICLELFEDPLLLPCAHSLCFNCAHRILVSHCATNESVESITAFQCPTCRHVITLSQRGLDGLKRNVTLQNIIDRFQKASVSGPNSPSETRRERAFDANTMTSAEKVLCQFCDQDPAQDAVKTCVTCEVSYCDECLKATHPNKKPFTGHRLIEPIPDSHIRGLMCLEHEDEKVNMYCVTDDQLICALCKLVGRHRDHQVAALSERYDKLKQNLESNLTNLIKRNTELETLLAKLIQTCQHVEVNASRQEAKLTEECDLLIEIIQQRRQIIGTKIKEGKVMRLRKLAQQIANCKQCIERSASLISQAEHSLKENDHARFLQTAKNITERVSMATASSQVLIPEINLNDTFDTFALDFSREKKLLECLDYLTAPNPPTIREELCTASYDTITVHWTSDDEFSVVSYELQYTIFTGQANVVSLCNSADSWMIVPNIKQNHYTVHGLQSGTKYIFMVKAINQAGSRSSEPGKLKTNSQPFKLDPKSAHRKLKVSHDNLTVERDESSSKKSHTPERFTSQGSYGVAGNVFIDSGRHYWEVVISGSTWYAIGLAYKSAPKHEWIGKNSASWALCRCNNNWVVRHNSKEIPIEPAPHLRRVGILLDYDNGSIAFYDALNSIHLYTFDVAFAQPVCPTFTVWNKCLTIITGLPIPDHLDCTEQLP
modifications: lentiviral expression
notes: human RING type E3 ligase expressed from lentiviral vector
As to B2, the “Percent Infected R1” value was found to be 71.6% and the “Z score R1” value is given as −0.216.

B3: TRIM19: human RING type E3 ligase expressed from lentiviral vector (protein, UniProt P29590 1-882, looked up)
Protein PML: MEPAPARSPRPQQDPARPQEPTMPPPETPSEGRQPSPSPSPTERAPASEEEFQFLRCQQCQAEAKCPKLLPCLHTLCSGCLEASGMQCPICQAPWPLGADTPALDNVFFESLQRRLSVYRQIVDAQAVCTRCKESADFWCFECEQLLCAKCFEAHQWFLKHEARPLAELRNQSVREFLDGTRKTNNIFCSNPNHRTPTLTSIYCRGCSKPLCCSCALLDSSHSELKCDISAEIQQRQEELDAMTQALQEQDSAFGAVHAQMHAAVGQLGRARAETEELIRERVRQVVAHVRAQERELLEAVDARYQRDYEEMASRLGRLDAVLQRIRTGSALVQRMKCYASDQEVLDMHGFLRQALCRLRQEEPQSLQAAVRTDGFDEFKVRLQDLSSCITQGKDAAVSKKASPEAASTPRDPIDVDLPEEAERVKAQVQALGLAEAQPMAVVQSVPGAHPVPVYAFSIKGPSYGEDVSNTTTAQKRKCSQTQCPRKVIKMESEEGKEARLARSSPEQPRPSTSKAVSPPHLDGPPSPRSPVIGSEVFLPNSNHVASGAGEAEERVVVISSSEDSDAENSSSRELDDSSSESSDLQLEGPSTLRVLDENLADPQAEDRPLVFFDLKIDNETQKISQLAAVNRESKFRVVIQPEAFFSIYSKAVSLEVGLQHFLSFLSSMRRPILACYKLWGPGLPNFFRALEDINRLWEFQEAISGFLAALPLIRERVPGASSFKLKNLAQTYLARNMSERSAMAAVLAMRDLCRLLEVSPGPQLAQHVYPFSSLQCFASLQPLVQAAVLPRAEARLLALHNVSFMELLSAHRRDRQGGLKKYSRYLSLQTTTLPPAQPAFNLQALGTYFEGLLEGPALARAEGVSTPLAGRGLAERASQQS
B3: the “Percent Infected R1” value is 60.8% and the “Z score R1” value was −0.354.

B4: RLIM: human RING type E3 ligase expressed from lentiviral vector (protein, UniProt Q9NVW2 1-624, looked up)
E3 ubiquitin-protein ligase …: MENSDSNDKGSGDQSAAQRRSQMDRLDREEAFYQFVNNLSEEDYRLMRDNNLLGTPGESTEEELLRRLQQIKEGPPPQNSDENRGGDSSDDVSNGDSIIDWLNSVRQTGNTTRSGQRGNQSWRAVSRTNPNSGDFRFSLEINVNRNNGSQNSENENEPSARRSSGENVENNSQRQVENPRSESTSARPSRSERNSTEALTEVPPTRGQRRARSRSPDHRRTRARAERSRSPLHPMSEIPRRSHHSISSQTFEHPLVNETEGSSRTRHHVTLRQQISGPELLSRGLFAASGTRNASQGAGSSDTAASGESTGSGQRPPTIVLDLQVRRVRPGEYRQRDSIASRTRSRSQTPNNTVTYESERGGFRRTFSRSERAGVRTYVSTIRIPIRRILNTGLSETTSVAIQTMLRQIMTGFGELSYFMYSDSDSEPTGSVSNRNMERAESRSGRGGSGGGSSSGSSSSSSSSSSSSSSSSSSSSPSSSSGGESSETSSDLFEGSNEGSSSSGSSGARREGRHRAPVTFDESGSLPFLSLAQFFLLNEDDDDQPRGLTKEQIDNLAMRSFGENDALKTCSVCITEYTEGNKLRKLPCSHEYHVHCIDRWLSENSTCPICRRAVLASGNRESVV
For B4, the “Percent Infected R1” value was found to be 82% and the “Z score R1” value is given as −0.08.

B5: TRIM23: human RING type E3 ligase expressed from lentiviral vector (protein, UniProt P36406 1-574, looked up)
E3 ubiquitin-protein ligase …: MATLVVNKLGAGVDSGRQGSRGTAVVKVLECGVCEDVFSLQGDKVPRLLLCGHTVCHDCLTRLPLHGRAIRCPFDRQVTDLGDSGVWGLKKNFALLELLERLQNGPIGQYGAAEESIGISGESIIRCDEDEAHLASVYCTVCATHLCSECSQVTHSTKTLAKHRRVPLADKPHEKTMCSQHQVHAIEFVCLEEGCQTSPLMCCVCKEYGKHQGHKHSVLEPEANQIRASILDMAHCIRTFTEEISDYSRKLVGIVQHIEGGEQIVEDGIGMAHTEHVPGTAENARSCIRAYFYDLHETLCRQEEMALSVVDAHVREKLIWLRQQQEDMTILLSEVSAACLHCEKTLQQDDCRVVLAKQEITRLLETLQKQQQQFTEVADHIQLDASIPVTFTKDNRVHIGPKMEIRVVTLGLDGAGKTTILFKLKQDEFMQPIPTIGFNVETVEYKNLKFTIWDVGGKHKLRPLWKHYYLNTQAVVFVVDSSHRDRISEAHSELAKLLTEKELRDALLLIFANKQDVAGALSVEEITELLSLHKLCCGRSWYIQGCDARSGMGLYEGLDWLSRQLVAAGVLDVA
As for B5, the “Percent Infected R1” value was 61.5% and the “Z score R1” value is reported as −0.345.

B6: TRIM20: human RING type E3 ligase expressed from lentiviral vector (protein, UniProt O15553 1-781, looked up)
Pyrin: MAKTPSDHLLSTLEELVPYDFEKFKFKLQNTSVQKEHSRIPRSQIQRARPVKMATLLVTYYGEEYAVQLTLQVLRAINQRLLAEELHRAAIQEYSTQENGTDDSAASSSLGENKPRSLKTPDHPEGNEGNGPRPYGGGAASLRCSQPEAGRGLSRKPLSKRREKASEGLDAQGKPRTRSPALPGGRSPGPCRALEGGQAEVRLRRNASSAGRLQGLAGGAPGQKECRPFEVYLPSGKMRPRSLEVTISTGEKAPANPEILLTLEEKTAANLDSATEPRARPTPDGGASADLKEGPGNPEHSVTGRPPDTAASPRCHAQEGDPVDGTCVRDSCSFPEAVSGHPQASGSRSPGCPRCQDSHERKSPGSLSPQPLPQCKRHLKQVQLLFCEDHDEPICLICSLSQEHQGHRVRPIEEVALEHKKKIQKQLEHLKKLRKSGEEQRSYGEEKAVSFLKQTEALKQRVQRKLEQVYYFLEQQEHFFVASLEDVGQMVGQIRKAYDTRVSQDIALLDALIGELEAKECQSEWELLQDIGDILHRAKTVPVPEKWTTPQEIKQKIQLLHQKSEFVEKSTKYFSETLRSEMEMFNVPELIGAQAHAVNVILDAETAYPNLIFSDDLKSVRLGNKWERLPDGPQRFDSCIIVLGSPSFLSGRRYWEVEVGDKTAWILGACKTSISRKGNMTLSPENGYWVVIMMKENEYQASSVPPTRLLIKEPPKRVGIFVDYRVGSISFYNVTARSHIYTFASCSFSGPLQPIFSPGTRDGGKNTAPLTICPVGGQGPD
modifications: lentiviral expression
notes: as for B2
On to B6, for which the “Percent Infected R1” value is listed as 78.8% and the “Z score R1” value is on record as −0.125.

B7: TRIM17: human RING type E3 ligase expressed from lentiviral vector (protein, UniProt Q9Y577 1-477, looked up)
E3 ubiquitin-protein ligase …: MEAVELARKLQEEATCSICLDYFTDPVMTTCGHNFCRACIQLSWEKARGKKGRRKRKGSFPCPECREMSPQRNLLPNRLLTKVAEMAQQHPGLQKQDLCQEHHEPLKLFCQKDQSPICVVCRESREHRLHRVLPAEEAVQGYKLKLEEDMEYLREQITRTGNLQAREEQSLAEWQGKVKERRERIVLEFEKMNLYLVEEEQRLLQALETEEEETASRLRESVACLDRQGHSLELLLLQLEERSTQGPLQMLQDMKEPLSRKNNVSVQCPEVAPPTRPRTVCRVPGQIEVLRGFLEDVVPDATSAYPYLLLYESRQRRYLGSSPEGSGFCSKDRFVAYPCAVGQTAFSSGRHYWEVGMNITGDALWALGVCRDNVSRKDRVPKCPENGFWVVQLSKGTKYLSTFSALTPVMLMEPPSHMGIFLDFEAGEVSFYSVSDGSHLHTYSQATFPGPLQPFFCLGAPKSGQMVISTVTMWVKG
B7: the “Percent Infected R1” value stood at 75.9% and the “Z score R1” value is reported as −0.162.
